In article PMC4393304, “Cloning and Characterization of Three Eimeria tenella Lipid Phosphate Phosphatases” (PLoS ONE, 2015):

T1: EtLPP1 (Eimeria tenella, UniProt A0A0A7H6F4)
T1 construct: full-length, 347 residues, calculated Mr 38239; His6-tagged (pcDNA3.1/His), transient in HEK293 cells, membrane fraction, Ni-NTA purified; bands 40 and 42 kDa, monomer
T1 sequence (A0A0A7H6F4 1-346): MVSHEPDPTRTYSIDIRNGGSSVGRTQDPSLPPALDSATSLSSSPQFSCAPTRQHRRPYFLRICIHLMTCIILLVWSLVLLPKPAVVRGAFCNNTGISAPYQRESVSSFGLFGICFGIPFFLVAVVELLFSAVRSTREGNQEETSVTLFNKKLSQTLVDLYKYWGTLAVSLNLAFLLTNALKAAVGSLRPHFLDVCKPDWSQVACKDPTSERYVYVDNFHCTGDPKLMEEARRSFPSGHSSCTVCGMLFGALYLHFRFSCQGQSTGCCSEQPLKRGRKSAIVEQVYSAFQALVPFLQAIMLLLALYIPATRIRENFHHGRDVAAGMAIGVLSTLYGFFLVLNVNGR

B1: EtLPP1 (Eimeria tenella) (protein)
chain: T1 sequence (A0A0A7H6F4 1-346)
notes: full-length, 347 residues, calculated Mr 38239; His6-tagged (pcDNA3.1/His), transient in HEK293 cells, membrane fraction, Ni-NTA purified; bands 40 and 42 kDa, monomer

Columns and labels:
[1] = target: T1, EtLPP1; test: PiPer phosphate-release fluorescence assay; assay type: biochemical; settings: pH 6.5, 37°C, Triton X-100 mixed micelles, 1 mg/ml fatty-acid free BSA, Mg2+-independent
Description: (§1) PiPer phosphate-release fluorescence assay on EtLPP1

[2] = substrate: CCCCCCCCCCCCC/C=C/[C@@H](O)[C@@H](N)COP(=O)(O)O; test: PiPer phosphate-release fluorescence assay; assay type: biochemical, Eimeria tenella; settings: pH 6.5, 37°C, Triton X-100 mixed micelles, 1 mg/ml fatty-acid free BSA, Mg2+-independent
Description: as §1

Molecule	Km [1] [µM]	Km [2] [µM]	Vmax [2] [µmol/min/mg]
LPA	46 ± 9		
B1		22 ± 6	0.00015
